Assay results: US20050208041A1 (Bristol-Myers Squibb, published 2005)
Where two headings read alike, the source gives them in different places.

T1: IFNAR-1 on human cells (human, UniProt P17181 28-557)
T1 sequence (looked up): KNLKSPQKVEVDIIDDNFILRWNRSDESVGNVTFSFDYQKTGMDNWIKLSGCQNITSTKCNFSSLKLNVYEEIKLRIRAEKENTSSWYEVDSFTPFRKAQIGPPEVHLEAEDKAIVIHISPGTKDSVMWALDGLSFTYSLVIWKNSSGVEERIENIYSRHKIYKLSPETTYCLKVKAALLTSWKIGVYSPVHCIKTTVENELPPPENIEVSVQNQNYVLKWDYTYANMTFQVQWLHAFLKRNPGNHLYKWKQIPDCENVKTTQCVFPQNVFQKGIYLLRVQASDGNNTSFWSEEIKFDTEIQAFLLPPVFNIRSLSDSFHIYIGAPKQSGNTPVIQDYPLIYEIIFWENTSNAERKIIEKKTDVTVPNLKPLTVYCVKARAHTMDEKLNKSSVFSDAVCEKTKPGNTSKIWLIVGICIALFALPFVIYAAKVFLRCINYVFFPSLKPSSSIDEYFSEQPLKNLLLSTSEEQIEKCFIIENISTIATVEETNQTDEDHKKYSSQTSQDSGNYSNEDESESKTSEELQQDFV

T2: purified recombinant IFNAR-1 extracellular fragment (human, UniProt P17181 28-436)
T2 construct: extracellular domain; also called soluble IFNAR-1; soluble IFNAR
T2 sequence (looked up): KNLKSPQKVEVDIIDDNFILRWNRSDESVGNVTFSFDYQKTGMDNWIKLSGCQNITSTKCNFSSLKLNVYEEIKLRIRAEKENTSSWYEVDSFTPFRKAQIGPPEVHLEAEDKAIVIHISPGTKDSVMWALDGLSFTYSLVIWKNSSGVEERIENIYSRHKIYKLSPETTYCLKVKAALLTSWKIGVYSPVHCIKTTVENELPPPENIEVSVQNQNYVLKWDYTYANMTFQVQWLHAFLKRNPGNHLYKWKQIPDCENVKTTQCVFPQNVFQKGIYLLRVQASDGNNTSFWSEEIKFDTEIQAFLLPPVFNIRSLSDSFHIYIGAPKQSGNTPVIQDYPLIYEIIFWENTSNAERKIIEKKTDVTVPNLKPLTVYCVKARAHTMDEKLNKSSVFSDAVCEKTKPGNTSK


How the values were obtained:
IFNAR-1 on human cells [1] = molecular target: T1, IFNAR-1 on human cells; experiment: cell-based or functional assay
IFNAR-1 on human cells [2] = molecular target: T1, IFNAR-1 on human cells; experiment: cell-based or functional assay; remark: listed apart in the source
[3] = molecular target: T2, purified recombinant IFNAR-1 …; experiment: Biacore, IFNAR-1 extracellular fragment coupled to CM5 chip, antibody 1.75-80 nM
Experimental: Antibodies from clones 64G12, H2K6, H2K1, H3K6, and H3K1 were assayed by Biacore analysis (Biacore AB, Uppsala, Sweden) to determine binding kinetics. Purified recombinant IFNAR-1 extracellular fragment was coupled to the CM5 sensor chip @ 600 RU. Binding was measured by adding antibody at concentrations from 1.75-80 nM at a flow rate of 20 ul/min. The binding curves were fit to a Langmuir binding model using BIAevaluation software (Biacore AB, Uppsala, Sweden).

[4] = molecular target: T2, purified recombinant IFNAR-1 …; experiment: Biacore, maximal association on IFNAR-1 relative to M3K1
From the text: (§1) Pools 4 and 11 were selected for further study and the individual antibodies in each pool were produced and expressed separately. The sequences of these individual antibodies were as shown in SEQ ID NO:12 of FIG. 1F and SEQ ID NO: 13 of FIG. 1G. The data is presented as maximal association relative to M3K1. […]

[5] = molecular target: T2, purified recombinant IFNAR-1 …; experiment: as above; remark: listed apart in the source
From the text: as §1

[6] = molecular target: T2, purified recombinant IFNAR-1 …; experiment: Biacore, antibody on immobilized soluble IFNAR-1, maximal response, mean of four
Experimental: Additional combination variants heavy chain DI M3-B and light chain DI K1-C were also made. These combination variants were also tested for binding to IFNAR-1. […] Binding analysis was done by Biacore, with the antibody bound to immobilized soluble IFNAR-1. Maximal response was determined at two concentrations and values shown are mean of four determinations.

[7] = molecular target: T2, purified recombinant IFNAR-1 …; experiment: Biacore, response on IFNAR-1 (flow cell 2) divided by response on anti-human IgG Fc (flow cell 4)
From the text: A series of antibodies were constructed with reduced numbers of potential T-cell epitopes. These included heavy chain variants M3-A and M3-B in which residues were changed in CDR regions and DI M3 in which framework residues were altered. De-immunized light chains were also constructed termed K1-C, K1-D, K1-E and DI K1. The antibodies were expressed and purified before analysis by Biacore. A Biacore chip was used with IFNAR-1 coated on Flow cell 2 at 690 RU and anti-human IgG Fc on flow cell 4 at 5000 RU. Binding of the antibody to IFNAR-1 relative to anti-human IgG Fc was determined by the ratio of response at flow cell 2 divided by flow cell 4 (Fc2/Fc4).

[8] = molecular target: T2, purified recombinant IFNAR-1 …; experiment: Biacore, antibody captured on anti-human IgG Fc, soluble IFNAR 25-400 nM, flow cell 2-1 low density capture
[9] = molecular target: T2, purified recombinant IFNAR-1 …; experiment: Biacore, antibody captured on anti-human IgG Fc, soluble IFNAR-1 25-400 nM, flow cell 2-1 low density capture
From the text: (§2) The binding affinity of M3K1 was compared to that of H3K1.

[10] = molecular target: T2, purified recombinant IFNAR-1 …; experiment: Biacore, antibody captured on anti-human IgG Fc, soluble IFNAR 25-400 nM, flow cell 4-3 higher density capture
[11] = molecular target: T2, purified recombinant IFNAR-1 …; experiment: Biacore, antibody captured on anti-human IgG Fc, soluble IFNAR-1 25-400 nM, flow cell 4-3 higher density capture
From the text: as §2

[12] = molecular target: T2, purified recombinant IFNAR-1 …; experiment: Biacore, antibody captured on anti-human IgG Fc, soluble IFNAR 25-400 nM, flow cell 2-1 low density capture; Flow cell 2-1, low density capture
From the text: as §2

[13] = molecular target: T2, purified recombinant IFNAR-1 …; experiment: Biacore, 200 nM antibody on immobilized soluble IFNAR-1
[14] = molecular target: T2, purified recombinant IFNAR-1 …; experiment: Receptor Binding (Biacore), purified recombinant receptor
IFNAR-1 on human cells [15] = molecular target: T1, IFNAR-1 on human cells; experiment: Scatchard analysis, 125I-labelled antibody on BALL-1 cells
Experimental: BALL-1 cells, which express IFNAR-1 and IFNAR-2, were used to assess the binding of anti-IFNAR-1 humanized antibodies to cells by Scatchard analysis. The cells were grown in RPMI containing 10% FCS and washed twice with Hanks Balanced Salt Solution (HBSS) at 4 degrees C. […] Millipore plates (MAFB NOB) were coated with 1% nonfat dry milk in water and stored a 4° C. overnight. The plates were washed with binding buffer and 25 ul of unlabeled antibody (1000-fold excess) in TBS binding buffer was added to control wells in a Millipore 96 well glass fiber filter plate (non-specific binding NSB). Twenty-five microliters of buffer alone was added to the maximum binding control well (total binding). Twenty-five microliters of ¹²⁵I-anti-IFNAR-1 antibody and 25 ul of BALL-I cell suspension (4×10⁷ cells/ml) in TBS binding buffer were added. The plates were incubated for 2 hours at 200 RPM on a shaker at 4° C. At the completion of the incubation the Millipore plates were washed twice with 0.2 ml of cold TBS binding buffer containing a final concentration of 0.5 M NaCl. The filters were removed and counted in a gamma counter. Evaluation of equilibrium binding was performed using single site binding parameters with the Prism software (San Diego, Calif.).
Therefore in either a protein-based or cell-based assay, the binding affinity of the antibodies are in the low nM range.

[16] = molecular target: T2, purified recombinant IFNAR-1 …; experiment: Receptor Binding (Biacore), purified recombinant receptor; Biacore, purified recombinant receptor (not BALL-1 cells)

Binder | Cell Proliferation (Daudi) IC50, cells cultured with interferon α2b (IFNAR-1 on human cells [2]) | ISRE-RG Reporter (U937) IC50, interferon α2b (IFNAR-1 on human cells [2]) | Kd [3] | % activity relative to M3K1 [4] | % activity relative to M3K1 [5] | % response relative to H3K1 [6] | % activity relative to H3K1 [7] | Fc2/Fc4 [7] | Kd [9] | koff [9] | kon [9] | Kd [11] | koff [11] | kon [11] | Kd (IFNAR-1 on human cells [15]) | further results
H3K1 (IgG1) (antibody, V domains shown) VH: EVQLVESGGGLVQPGGSLRLSCAFSGFTLSTSGMGIGWVRQAPGKGLEWVAHIWWDDDKYYNPSLKSRFTISRDTSKNTVYLQMNSLRAEDTAVYYCARNYYPYDAWFDYWGQGTLVTVS VL: DIQMTQSPSSLSASVGDRVTITCSASSSINSNHLHWYQQKPGKAPKLLIYRTSILASGVPSRFSGSGSGTSFTLTISSLQPEDFATYYCQQGSNIPFTFGQGTKVEIKR | 3.9 nM | 2.7 nM | – | – | – | – | – | – | – | – | – | – | – | – | – | ISRE-RG reporter assay with IFNβ, potency against H3K1 (IgG4) (IFNAR-1 on human cells [1]): ~10 fold
M3K1 (antibody, V domains shown, also called heavy chain M3 with light chain K1) VH: EVQLLESGGGLVQPGGSLRLSCAFSGFTLSTSGMGIGWVRQAPGKGLEWVAHIWWDDDKYYNPSLKSRFTISRDTSKNTVYLQMNSLRAEDTAVYYCARNYYPYDAWFDYWGQGTLVTVS VL: DIQMTQSPSSLSASVGDRVTITCSASSSINSNHLHWYQQKPGKAPKLLIYRTSILASGVPSRFSGSGSGTSFTLTISSLQPEDFATYYCQQGSNIPFTFGQGTKVEIKR | – | – | – | 100% | 100% | 97% | 140% | 0.42 | 7.09 nM | 3.79e-05 s⁻¹ | 5340 M⁻¹ s⁻¹ | 7.99 nM | 4.39e-05 s⁻¹ | 5490 M⁻¹ s⁻¹ | – | Kd [8]: 7.09 nM; koff [8]: 3.79e-05 s⁻¹; Kd [10]: 7.99 nM; koff [10]: 4.39e-05 s⁻¹; kon [10]: 5490 M⁻¹ s⁻¹; kon [12]: 5340 M⁻¹ s⁻¹

Further lines, with some results ahead:

Cell Proliferation (Daudi) IC50, cells cultured with interferon α2b (IFNAR-1 on human cells [2]) | ISRE-RG Reporter (U937) IC50, interferon α2b (IFNAR-1 on human cells [2]) | Kd [3] | % activity relative to M3K1 [4] | % activity relative to M3K1 [5] | % response relative to H3K1 [6] | % activity relative to H3K1 [7] | Fc2/Fc4 [7] | Kd [9] | koff [9] | kon [9] | Kd [11] | koff [11] | kon [11] | Kd (IFNAR-1 on human cells [15]) | Binder | further results
– | – | 1.8 nM | – | – | – | – | – | – | – | – | – | – | – | – | H3K6 (antibody, V domains shown, Full-length antibody with human IgG constant regions; also called heavy chain H3 with light chain K6) VH: EVQLVESGGGLVQPGGSLRLSCAFSGFTLSTSGMGIGWVRQAPGKGLEWVAHIWWDDDKYYNPSLKSRFTISRDTSKNTVYLQMNSLRAEDTAVYYCARNYYPYDAWFDYWGQGTLVTVS VL: EIVLTQSPDFQSVTPKEKVTITCSASSSINSNHLHWYQQKPGQSPKLLIYRTSILASGVPSRFSGSGSGTSFTLTINSLEAEDVATYYCQQGSNIPFTFGQGTKLEIKR | –
9.1 nM | 21.5 nM | 3.4 nM | 115% | 138% | 100% | 100% | 0.3 | 6.26 nM | 5.04e-05 s⁻¹ | 8060 M⁻¹ s⁻¹ | 6.43 nM | 4.81e-05 s⁻¹ | 7480 M⁻¹ s⁻¹ | 4 nM | H3K1 (IgG4) (antibody, V domains shown, also called H3K1 standard; humanized anti-IFNAR-1 mAb H3K1) VH: EVQLVESGGGLVQPGGSLRLSCAFSGFTLSTSGMGIGWVRQAPGKGLEWVAHIWWDDDKYYNPSLKSRFTISRDTSKNTVYLQMNSLRAEDTAVYYCARNYYPYDAWFDYWGQGTLVTVS VL: DIQMTQSPSSLSASVGDRVTITCSASSSINSNHLHWYQQKPGKAPKLLIYRTSILASGVPSRFSGSGSGTSFTLTISSLQPEDFATYYCQQGSNIPFTFGQGTKVEIKR | Max Response relative to H3K1 (%) [13]: 100%; Kd [14]: 3.4 nM
2.1 nM | 5.8 nM | 1.2 nM | – | – | – | – | – | – | – | – | – | – | – | 3.9 nM | murine monoclonal antibody 64G12 (antibody, V domains shown, Mouse IgG1, kappa light chain; also called 64G12 (mouse IgG1); murine anti-IFNAR-1 mAb 64G12) VH: QVTLKESGPGILKPSQTLSLTCSFSGFSLSTSGMGIGWIRQPSGKGLEWLAHIWWDDDKYYNPSLKSQLTISRDTSTNQVFLNITSVDTVDTATYYCGRNYYPYDAWFDYWGQGTLVTVS VL: EIVLTQSPTTMAASPGEKITITCSASSSINSNHLHWYQQKPGFSPKVLIYRTSILASGVPTRFSGSGSGTSYSLTIGTMEAEDVATYYCQQGSNIPFTFGSGTELEIKR | fold decrease in ISRE-RG reporter assay with IFNβ, potency against H3K1 (IgG1) (IFNAR-1 on human cells [1]): 3 fold; Kd [16]: 1.2 nM
